Assay results reported in patent publication US20250027060A1 (VIB VZW, published 2025).
One block for each binder: values may come before it.

Columns and labels:
[1] = target: T1, ALKTG (human ALK amino acids 648-985) (human, UniProt Q9UM73 648-985, N-linked glycans; EndoH-trimmed for crystals and SEC-MALLS); test: ITC
T1 construct: Fc-His6 tag removed by caspase 3; also called ALK TG supradomain
Experimental: (§1) Experiments were performed using a MicroCal PEAQ-ITC instrument at 310K. Proteins used in ITC experiments were expressed in HEK293S cells grown in suspension. As a final purification step all proteins were buffer exchanged to the same HBS buffer via size-exclusion chromatography. Titrations were preceded by an initial injection of 0.5 μL. The injection spacing was optimized per experiment to allow for the signal to get back to a stable baseline. Throughout the titration the sample was stirred at a speed of 750 r.p.m. Data were analyzed using the PEAQ-ITC analysis software (version 1.1.0.1262, Malvern) and fit using a “one set of sites” model.

[2] = target: T2, ALKTG-EGFL (human ALK amino acids 648-1025) (human, UniProt Q9UM73 648-1025, N-linked glycans; EndoH-trimmed (deglycosylated) for crystals and SEC-MALLS); test: ITC, 310 K, one-site model
T2 construct: The C-terminal Fc-His6 tag was removed by caspase 3; also called ALK (in BLI, SEC-MALLS and ITC)
T2 sequence (Q9UM73 648-1025): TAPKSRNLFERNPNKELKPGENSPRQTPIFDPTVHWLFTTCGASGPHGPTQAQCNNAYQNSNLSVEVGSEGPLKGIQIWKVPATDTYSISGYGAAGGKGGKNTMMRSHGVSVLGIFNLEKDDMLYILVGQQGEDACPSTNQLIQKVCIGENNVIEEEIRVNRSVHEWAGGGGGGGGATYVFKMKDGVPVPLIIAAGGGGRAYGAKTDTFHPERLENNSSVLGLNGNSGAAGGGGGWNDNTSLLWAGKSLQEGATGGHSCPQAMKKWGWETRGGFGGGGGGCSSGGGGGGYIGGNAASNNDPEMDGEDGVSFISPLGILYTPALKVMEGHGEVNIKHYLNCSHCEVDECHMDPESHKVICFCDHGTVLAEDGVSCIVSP
Experimental: (§2) FIG. 5A and FIG. 5B Isothermal titration calorimetry thermograms for the titration of ALK_TG-EGFL (10 μM) with ALKAL2 (100 μM) (FIG. 5A) and titration of ALKAL1 (25 μM) with ALK_TG-EGFL (210 μM) (FIG. 5B). […] The right panel represents the binding isotherm obtained from the integration of the raw data and fitted to a one-site model. Standard deviations were calculated based on 3 measurements.
as §1

[3] = target: T3, LTKTG-EGFL (human LTK amino acids 63-420) (human, UniProt P29376 63-420); test: ITC, 310 K, one-site model, 2:1 stoichiometry
T3 construct: Fc-His6 tag removed by caspase 3; also called LTK (in BLI, SEC-MALLS and ITC)
T3 sequence: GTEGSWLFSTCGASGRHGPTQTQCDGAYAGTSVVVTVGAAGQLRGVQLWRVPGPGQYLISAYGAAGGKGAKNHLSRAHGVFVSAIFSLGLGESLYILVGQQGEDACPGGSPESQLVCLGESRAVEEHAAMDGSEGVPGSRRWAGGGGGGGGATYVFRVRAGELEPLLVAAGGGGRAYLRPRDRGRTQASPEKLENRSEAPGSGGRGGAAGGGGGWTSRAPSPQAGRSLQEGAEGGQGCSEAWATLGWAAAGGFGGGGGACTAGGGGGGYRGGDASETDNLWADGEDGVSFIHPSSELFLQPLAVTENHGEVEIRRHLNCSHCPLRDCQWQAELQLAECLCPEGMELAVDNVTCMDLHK
Experimental: (§3) The right panel represents the binding isotherm obtained from the integration of the raw data and fitted to a one-site model. Standard deviations were calculated based on 3 measurements.
as §1

[4] = target: T1, ALKTG (human ALK amino acids 648-985); test: ITC at 310 K, ALKAL1 (33 µM) titrated with ALKTG (330 µM), one-site model
Experimental: FIG. 5E, Titration of ALKAL1 (33 μM) with ALKTG (330 μM) Standard deviations were calculated based on 3 measurements.
as §1

[5] = target: T4, LTKTG (human LTK amino acids 63-379) (human, UniProt P29376 63-379); test: ITC at 310 K, LTKTG (10 µM) titrated with ALKAL1 (70 µM), one-site model
T4 construct: also called LTK TG supradomain
T4 sequence: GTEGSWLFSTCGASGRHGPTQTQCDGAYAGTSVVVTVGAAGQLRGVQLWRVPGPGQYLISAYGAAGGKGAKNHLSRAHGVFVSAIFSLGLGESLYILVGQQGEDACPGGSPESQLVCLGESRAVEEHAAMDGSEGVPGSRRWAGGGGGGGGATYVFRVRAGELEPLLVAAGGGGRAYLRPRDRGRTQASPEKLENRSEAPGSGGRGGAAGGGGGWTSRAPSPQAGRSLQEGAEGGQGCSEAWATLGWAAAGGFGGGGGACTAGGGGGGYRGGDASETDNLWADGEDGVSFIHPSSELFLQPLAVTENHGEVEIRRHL
Experimental: FIG. 12F, ITC experiments for the titration of LTKTG (10 μM) with ALKAL1 (70 μM) Standard deviations were calculated based on 2 measurements.
as §1

[6] = target: T3, LTKTG-EGFL (human LTK amino acids …); test: ITC at 310 K, LTKTG-EGFL (5 µM) titrated with ALKAL1 (56 µM), one-site model
Experimental: as §3, §1

[7] = target: T2, ALKTG-EGFL (human ALK amino acids …); test: ITC at 310 K, ALKAL1 (25 µM) titrated with ALKTG-EGFL (210 µM), one-site model
Experimental: as §2, §1

[8] = target: T2, ALKTG-EGFL (human ALK amino acids …); test: BLI, biotinylated ALKAL1 on streptavidin biosensors, ALKTG-EGFL in solution 6 µM to 400 nM, 1:1 model
Text: (§4) FIGS. 10A and 10B Representative response curves as measure by biolayer-interferometry (BLI) for the interaction of WT ALKAL1 and ALKAL1 mutants (containing charge-reversal mutations of residues involved in site 1) (FIG. 10A) and WT ALKAL2 and ALKAL2 mutants (FIG. 10B) with ALK_TG-EGFL and LTK_TG-EGFL. For WT ALKALs LTK curves were fitted with a 2:1 binding model (red) while for ALK a 1:1 model was used. Start and end concentrations of the 3-fold dilution series used for the WT measurements is shown as an inset while for all mutants a […] dilution series from 6.4 μM-400 nM was used.
(§5) All measurements of binding kinetics and dissociation constants were performed using an Octet Red 96 (Forté Bio) in assay buffer (20 mM HEPES pH 7.4, 150 mM NaCl, 0.02% (w/v) BSA, 0.002% (v/v) Tween 20) at 298K. ALKALs were immobilized to a level of 0.5 nm on streptavidin-coated biosensors (Forté Bio). To verify that no a specific binding was present during the assay, non-functionalized biosensors were used as a control by measuring in parallel all ligand concentrations as well as running buffer. For all mutants a two-fold dilution series from 6.4 μM-400 nM was employed. Data analysis was performed using the Data Analysis software 9.0.0.14 (Forté Bio) and binding curves were exported to Prism8 (Graphpad Software) for plotting of curves.

[9] = target: T3, LTKTG-EGFL (human LTK amino acids …); test: BLI, biotinylated ALKAL1 on streptavidin biosensors, LTKTG-EGFL in solution 300 nM to 11 nM, 2:1 binding model, component 1
Text: as §4, §5

[10] = target: T3, LTKTG-EGFL (human LTK amino acids …); test: BLI, biotinylated ALKAL1 on streptavidin biosensors, LTKTG-EGFL in solution 300 nM to 11 nM, 2:1 binding model, component 2
Text: as §4, §5

[11] = target: T3, LTKTG-EGFL (human LTK amino acids …); test: BLI, biotinylated ALKAL1 F76E on streptavidin biosensors, LTKTG-EGFL in solution, dilution series 6.4 µM-400 nM, biphasic fit, component 1
Text: as §4, §5

[12] = target: T3, LTKTG-EGFL (human LTK amino acids …); test: BLI, biotinylated ALKAL1 F76E on streptavidin biosensors, LTKTG-EGFL in solution, dilution series 6.4 µM-400 nM, biphasic fit, component 2
Text: as §4, §5

[13] = target: T3, LTKTG-EGFL (human LTK amino acids …); test: BLI, biotinylated ALKAL1 R115E on streptavidin biosensors, LTKTG-EGFL in solution, dilution series 6.4 µM-400 nM
Text: as §4, §5

[14] = target: T2, ALKTG-EGFL (human ALK amino acids …); test: BLI, biotinylated ALKAL2 F97E on streptavidin biosensors, ALKTG-EGFL in solution
Text: as §4, §5

[15] = target: T3, LTKTG-EGFL (human LTK amino acids …); test: BLI, biotinylated ALKAL2 F97E on streptavidin biosensors, LTKTG-EGFL in solution, dilution series 6.4 µM-400 nM; only component 1 is printed
Text: as §4, §5

[16] = target: T2, ALKTG-EGFL (human ALK amino acids …); test: BLI, biotinylated ALKAL2 R136E on streptavidin biosensors, ALKTG-EGFL in solution, dilution series 6.4 µM-400 nM
Text: as §4, §5

[17] = target: T3, LTKTG-EGFL (human LTK amino acids …); test: BLI, biotinylated ALKAL2 R136E on streptavidin biosensors, LTKTG-EGFL in solution, dilution series 6.4 µM-400 nM
Text: as §4, §5

[18] = target: T4, LTKTG (human LTK amino acids 63-379); test: ITC at 310 K, LTKTG (10 µM) titrated with ALKAL1FL (40 µM), one-site model
Experimental: FIG. 12H, ITC experiments for the titration of LTKTG (10 μM) with ALKAL1FL (40 μM) Standard deviations were calculated based on 2 measurements.
as §1

[19] = target: T3, LTKTG-EGFL (human LTK amino acids …); test: ITC at 310 K, LTKTG-EGFL (7.2 µM) titrated with ALKAL1FL (55 µM), one-site model
Experimental: as §3, §1

T1 sequence (Q9UM73 648-985 limits assumed): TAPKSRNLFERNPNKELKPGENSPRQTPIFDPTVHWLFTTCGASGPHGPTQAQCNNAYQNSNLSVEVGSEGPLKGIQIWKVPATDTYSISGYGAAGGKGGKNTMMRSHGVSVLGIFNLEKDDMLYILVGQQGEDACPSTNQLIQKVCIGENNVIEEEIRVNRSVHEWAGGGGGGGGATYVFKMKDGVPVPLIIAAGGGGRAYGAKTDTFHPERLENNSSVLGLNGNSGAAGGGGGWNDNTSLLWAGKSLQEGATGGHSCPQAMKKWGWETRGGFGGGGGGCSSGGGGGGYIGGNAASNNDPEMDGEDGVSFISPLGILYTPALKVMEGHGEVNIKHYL

B1: ALKAL1 (truncated, residues 57-129) (ligand, human, UniProt Q6UXT8 57-129, looked up)
chain: PSGSRSAEIFPRDSNLKDKFIKHFTGPVTFSPECSKHFHRLYYNTRECSTPAYYKRCARLLTRLAVSPLCSQT
notes: range 57-129; Tag-free in ITC, SEC-MALLS, crystals and Ba/F3 assays; also called ALKAL1^WT; WT ALKAL1
- fold decrease in affinity against ALKTG-EGFL [1]: 4 fold
- Kd [2]: 600 nM
- Kd [3]: 10 nM
- Kd [4]: 2500 nM
- ΔG [4]: -7.95 kcal/mol
- ΔH [4]: -5.5 kcal/mol
- Kd [5]: 69 nM
- ΔG [5]: -10.2 kcal/mol
- ΔH [5]: -28.6 kcal/mol
- Kd [6]: 55 nM
- ΔG [6]: -10.4 kcal/mol
- ΔH [6]: -29.4 kcal/mol
- ΔG [7]: -8.93 kcal/mol
- ΔH [7]: -7.3 kcal/mol
- Kd [8]: 760 nM
- koff [8]: 0.093 s⁻¹
- kon [8]: 130000 M⁻¹ s⁻¹
- Kd [9]: 48 nM
- koff [9]: 0.0025 s⁻¹
- kon [9]: 52000 M⁻¹ s⁻¹
- Kd [10]: 31 nM
- koff [10]: 0.026 s⁻¹
- kon [10]: 860000 M⁻¹ s⁻¹

B2: ALKAL1^F76E (residues 57-129) (ligand, human, UniProt Q6UXT8 57-129, looked up)
chain: PSGSRSAEIFPRDSNLKDKEIKHFTGPVTFSPECSKHFHRLYYNTRECSTPAYYKRCARLLTRLAVSPLCSQT
notes: range 57-129; Avi-tagged and biotinylated in BLI; used as purified protein in SEC-MALLS and Ba/F3 assays; also called ALKAL1 site 2 mutant
- Kd [11]: 350 nM
- koff [11]: 0.0005 s⁻¹
- kon [11]: 4000 M⁻¹ s⁻¹
- Kd [12]: 1500 nM
- koff [12]: 0.11 s⁻¹
- kon [12]: 60000 M⁻¹ s⁻¹

B4: ALKAL2^F97E (residues 78-152) (ligand, human, UniProt Q6UX46 78-152, looked up)
chain: PSPEQRVEIVPRDLRMKDKELKHLTGPLYFSPKCSKHFHRLYHNTRDCTIPAYYKRCARLLTRLAVSPVCMEDKQ
notes: range 78-152; Avi-tagged and biotinylated in BLI; used as purified protein in SEC-MALLS and Ba/F3 assays; also called ALKAL2 site 2 mutant F97E
- Kd [14]: 200 nM
- koff [14]: 0.071 s⁻¹
- kon [14]: 450000 M⁻¹ s⁻¹
- Kd [15]: 8.4 µM
- koff [15]: 0.16 s⁻¹
- kon [15]: 53000 M⁻¹ s⁻¹

B5: ALKAL2^R136E (residues 78-152) (ligand, human, UniProt Q6UX46 78-152, looked up)
chain: PSPEQRVEIVPRDLRMKDKFLKHLTGPLYFSPKCSKHFHRLYHNTRDCTIPAYYKRCAELLTRLAVSPVCMEDKQ
notes: range 78-152; also called ALKAL2 site 1 mutant R136E
- Kd [16]: 1500 nM
- koff [16]: 0.8 s⁻¹
- Kd [17]: 5.9 µM
- koff [17]: 0.12 s⁻¹
- kon [17]: 20000 M⁻¹ s⁻¹

Results, then the binder that gave them:

- Kd [13]: 3.1 µM
- koff [13]: 0.041 s⁻¹
- kon [13]: 13000 M⁻¹ s⁻¹
B3: ALKAL1^R115E (residues 57-129) (ligand, human, UniProt Q6UXT8 57-129, looked up)
chain: PSGSRSAEIFPRDSNLKDKFIKHFTGPVTFSPECSKHFHRLYYNTRECSTPAYYKRCAELLTRLAVSPLCSQT
notes: range 57-129; also called ALKAL1 site 1 mutant R115E

- Kd [18]: 24 nM
- ΔG [18]: -10.8 kcal/mol
- ΔH [18]: -29.6 kcal/mol
- Kd [19]: 11 nM
- ΔG [19]: -11.3 kcal/mol
- ΔH [19]: -31.7 kcal/mol
B6: ALKAL1FL (full-length ALKAL1, residues 28-129) (ligand, human, UniProt Q6UXT8 28-129, looked up)
chain: RPRGRRGARVTDKEPKPLLFLPAAGAGRTPSGSRSAEIFPRDSNLKDKFIKHFTGPVTFSPECSKHFHRLYYNTRECSTPAYYKRCARLLTRLAVSPLCSQT
notes: range 28-129; Sumostar tag removed by caspase 3
